{
  "source": "patent US20130323813",
  "about": "“PEPTIDES FOR THE SPECIFIC BINDING OF RNA TARGETS” (THE UNIVERSITY OF WESTERN AUSTRALIA, published 2013)",
  "binders": {"B1": {"name": "NREU3C (Fl) (ssRNA)", "RNA": "AUUGCAUAUA"}},
  "key": {"[1]": {"target": "T1, PUM1 PUF GR (repeat 6 Gly12/Arg16) (Homo sapiens, UniProt Q14671 SEQ:1-351)", "T1 chain": "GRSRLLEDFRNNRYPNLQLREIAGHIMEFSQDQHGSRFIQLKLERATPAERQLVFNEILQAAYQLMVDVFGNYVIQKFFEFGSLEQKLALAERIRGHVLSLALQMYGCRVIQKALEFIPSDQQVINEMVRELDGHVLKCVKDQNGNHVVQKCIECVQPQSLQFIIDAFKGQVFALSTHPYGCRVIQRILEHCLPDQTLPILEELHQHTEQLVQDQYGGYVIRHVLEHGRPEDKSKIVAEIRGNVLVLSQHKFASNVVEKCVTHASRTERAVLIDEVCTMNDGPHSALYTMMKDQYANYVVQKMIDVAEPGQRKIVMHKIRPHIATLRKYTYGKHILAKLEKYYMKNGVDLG", "assay": "EMSA; 10 mM HEPES pH 8.0, 50 mM KCl, 1 mM EDTA, RT", "conditions": "tags: intein-CBD cleaved for EMSA; label: 5'-fluorescein", "method": "(§1) Purified PUF domains were incubated at room temperature for 30 min with fluorescein labeled RNA oligonucleotides (Dharmacon) in 10 mM HEPES (pH 8.0), 1 mM EDTA, 50 mM KCl, 2 mM DTT, 0.1 mg/ml fatty acid-free BSA, and 0.02% Tween-20."}, "[2]": {"target": "T2, PUM1 PUF CR (repeat 6 Cys12/Arg16) (Homo sapiens, UniProt Q14671 SEQ:1-351)", "T2 chain": "T1 chain with G218C", "assay": "EMSA; 10 mM HEPES pH 8.0, 50 mM KCl, 1 mM EDTA, RT", "conditions": "tags: intein-CBD cleaved for EMSA; label: 5'-fluorescein", "method": "as §1"}},
  "note": "Changes are numbered by the printed parent chain.",
  "data": [
    {"binder": "B1", "values": [
      {"measurement": "binding result", "setting": "[1]", "result": "binds"},
      {"measurement": "binding result", "setting": "[2]", "result": "binds"}
    ]}
  ]
}
